Results as given in US20220332804A1 (CSL INNOVATION, published 2022).
Residue numbers refer to the chain shown, from its start.

Assays:
Assay in all cases: SPR, KD relative to WT C2;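 further: biacore SPR at 37 °C, anti-C2 mAbs captured via immobilised goat anti-human IgG, C2 alanine or serine surface mutants as analytes, 1:1 model fitted, double-referenced sensograms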
[1] = target: T1, human C2 D431A (human, UniProt P06681 21-752)
T1 sequence: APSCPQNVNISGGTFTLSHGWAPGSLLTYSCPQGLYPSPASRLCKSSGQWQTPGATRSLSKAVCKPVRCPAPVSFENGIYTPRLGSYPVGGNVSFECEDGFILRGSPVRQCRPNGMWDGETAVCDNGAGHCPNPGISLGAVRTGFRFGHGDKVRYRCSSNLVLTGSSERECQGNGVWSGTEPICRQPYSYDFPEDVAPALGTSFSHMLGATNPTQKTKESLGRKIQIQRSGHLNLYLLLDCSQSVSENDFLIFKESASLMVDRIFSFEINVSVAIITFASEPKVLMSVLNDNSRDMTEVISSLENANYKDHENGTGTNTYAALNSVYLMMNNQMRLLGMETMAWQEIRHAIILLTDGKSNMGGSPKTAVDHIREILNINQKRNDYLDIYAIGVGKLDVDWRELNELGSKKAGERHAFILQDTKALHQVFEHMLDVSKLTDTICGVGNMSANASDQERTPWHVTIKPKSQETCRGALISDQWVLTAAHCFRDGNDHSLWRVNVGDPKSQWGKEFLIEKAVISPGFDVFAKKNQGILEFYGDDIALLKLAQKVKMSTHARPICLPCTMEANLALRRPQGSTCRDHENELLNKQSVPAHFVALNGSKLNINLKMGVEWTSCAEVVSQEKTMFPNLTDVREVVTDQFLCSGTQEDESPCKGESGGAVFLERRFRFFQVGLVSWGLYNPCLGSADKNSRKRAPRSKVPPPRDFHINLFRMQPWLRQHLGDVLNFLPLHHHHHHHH

[2] = target: T2, human C2 Y328A (human, UniProt P06681 21-752)
T2 sequence: T1 sequence with Y308A, A411D

[3] = target: T3, human C2 V465A (human, UniProt P06681 21-752)
T3 sequence: T1 sequence with A411D, V445A

[4] = target: T4, human C2 K711A (human, UniProt P06681 21-752)
T4 sequence: T1 sequence with A411D, K691A

B1: RF16-226 (antibody, human IgG4 S228P, lambda)
heavy: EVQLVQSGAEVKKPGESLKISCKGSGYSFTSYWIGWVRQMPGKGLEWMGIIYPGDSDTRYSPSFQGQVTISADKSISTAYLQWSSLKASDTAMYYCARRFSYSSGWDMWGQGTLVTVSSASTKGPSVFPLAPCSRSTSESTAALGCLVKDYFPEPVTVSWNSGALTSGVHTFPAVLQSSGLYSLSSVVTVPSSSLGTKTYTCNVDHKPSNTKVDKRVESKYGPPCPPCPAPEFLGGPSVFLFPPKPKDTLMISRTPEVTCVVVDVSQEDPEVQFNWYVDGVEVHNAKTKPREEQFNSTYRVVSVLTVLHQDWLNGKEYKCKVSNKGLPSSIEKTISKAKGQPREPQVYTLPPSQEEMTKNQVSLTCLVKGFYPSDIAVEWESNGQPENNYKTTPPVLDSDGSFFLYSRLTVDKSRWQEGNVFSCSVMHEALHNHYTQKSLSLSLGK
light: SYELTQPPSVSVSPGQTARITCSGDALTSKYVAWYQQKSGLAPLLVIYEDTRRPSGIPAKFSGSSSGSVATLTISGAHGDDEADYYCYSTDASGHQRVFGGGTKLTVLSQPKAAPSVTLFPPSSEELQANKATLVCLISDFYPGAVTVAWKADGSPVKAGVETTKPSKQSNNKYAASSYLSLTPEQWKSHRSYSCQVTHEGSTVEKTVAPTECS
notes: pH-dependent anti-C2 antibody from a phage display library; also called WT
In the case of B1, the Fold diff [1] is reported as 4 fold, the Fold diff [2] is reported as 8 fold and the Fold diff [3] is reported as 2 fold. For the same binder, the Fold diff [4] was 5 fold.
